Laboratory results from patent US20210171576.

Molecular target: Untagged human mitochondrial ClpP (HsClpP) (UniProt Q16740)
Sequence (Q16740 other isoform, or with tags, fused parts or gaps): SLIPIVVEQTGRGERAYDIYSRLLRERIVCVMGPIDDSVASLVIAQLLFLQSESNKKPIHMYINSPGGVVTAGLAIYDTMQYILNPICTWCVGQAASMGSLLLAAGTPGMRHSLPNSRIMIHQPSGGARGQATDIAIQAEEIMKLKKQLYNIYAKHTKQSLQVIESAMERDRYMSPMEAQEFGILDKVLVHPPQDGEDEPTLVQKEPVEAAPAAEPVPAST

Chain of Untagged human mitochondrial ClpX (HsClpX) (chain, as listed by the source): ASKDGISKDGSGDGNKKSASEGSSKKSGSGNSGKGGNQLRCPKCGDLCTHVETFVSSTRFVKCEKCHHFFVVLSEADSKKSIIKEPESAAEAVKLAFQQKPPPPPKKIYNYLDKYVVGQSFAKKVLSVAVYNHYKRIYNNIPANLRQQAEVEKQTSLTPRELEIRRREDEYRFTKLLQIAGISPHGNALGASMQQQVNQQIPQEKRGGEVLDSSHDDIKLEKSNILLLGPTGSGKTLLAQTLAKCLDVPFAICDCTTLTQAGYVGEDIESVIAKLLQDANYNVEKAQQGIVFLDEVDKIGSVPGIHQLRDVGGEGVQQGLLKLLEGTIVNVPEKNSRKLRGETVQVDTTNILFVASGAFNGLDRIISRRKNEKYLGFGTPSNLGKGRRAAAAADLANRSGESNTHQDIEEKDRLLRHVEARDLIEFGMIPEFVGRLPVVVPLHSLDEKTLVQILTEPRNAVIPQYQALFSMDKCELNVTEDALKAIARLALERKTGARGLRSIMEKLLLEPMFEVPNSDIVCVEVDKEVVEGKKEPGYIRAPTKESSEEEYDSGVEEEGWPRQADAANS

Untagged human mitochondrial ClpX (HsClpX)
Hill coefficient (h) of casein-FITC degradation by HsClpP with titrated HsClpX: mild positive cooperativity (h=1.25) in HsCIpP-binding | K0.5 (microscopic apparent dissociation constant). Hill fit of initial rates of casein-FITC degradation; HsClpX titrated 0-18 µM against 3 µM HsClpP: a K0.5 of 5.7 µM | Vmax of casein-FITC degradation by HsClpP with titrated HsClpX: a Vmax of 6.88 RFU.s^-1
